Assay results published in the DeepSol protein solubility set.

Test: soluble on expression in E. coli; label from the status in PepcDB or PDB records

Sequence | soluble on expression in E. coli
MAHHHHHHMEPLIIDNLYKFGDEEVRLGIDEAGRGPVLGPMVYAGFYCNKEHEKLLKEMKIDDSKKISEADREMMFHKLNNSSLPFGWRIHVLMPQDISAKMLKKQKYNLNEISHDTAISIIDHVISRGCNLTEVFVDTVGKPSVYEEKLKRLFPHIKCTVKEKADSLYPVVSAASICAKVTRDFLIKKWKYEEPLVNIDKGFGSGYPGDPITKNFLKNNFDTVFGFPSIVRFSWSTADNMLETMGEQIEWYDDIENNDSKAIKRKTPFDYSKLQKPFVQRSLFYSKVGLDLVENL | not soluble
MDEKLVKEVIFSFREVQRKTHHVLAEEAANREITTTQLLAIRELQKESDLTLGELAERMKLGKSTVSGIVDRLVKAGFLKRTRNESNRRALSLELTEKGATKAAETYHVFFNRLEPILEIGEERLKEMLEMHQEIITILEREGARD | not soluble
MKYMIGVDIGTTSTKSVLYDENGTFIMKHQIGYDLHTPNVDVSEENPDELFDAVLMTIKYVMRESKVNKDDIKFVSFSAQMHSLIAMDQQHQRLTNNITWADNRAAKYATVINEVHDGNAIYQRTGTPIHPMSPLAKIFWMKHEWQDVFQRTAKFADIKTYIFYHLFDTYIIDYSMASATGMFNLETLDWDVEALELLGISKEMLPELVPTTYVMKGMKERYATLMGLNKDTPFVIGASDGVLSNLGVNSVGKGEVAVTIGTSGAIRTVIDKPRTDYKGRIFCYVLTEDHYVIGGPVNNGGVVLRWLRDELLASEVETAKRLGVDPYDVLTQIAKRVKPGADGLIFHPYLAGERAPLWNANARGSFFGLTLSHKKEHMIRAALEGVLYNLYTVYLALIEVMNETPKMIKATGGFAKSEVWRQMMSDIFDTELVVPESYESSCLGACVLGLKAVGDIEDFSIVSSMVGATNNHTPIEENVTVYQEIVSIFINLSRSLTENYEQIADFQRQHIAENKTQ | not soluble
MGSDKIHHHHHHMNTFPAVLIGGPPHSGKSVLTYLLTQYLRQRGIEHYVLRACPDGEGDWSQESTPDLVRLLRQKGAFDRTFVDRVCRDIEQRHLPLLVDVGGRPTLDQERIIQRCTHAIVLSATPQGMDEWRNRVEQYGLIIVAELHSELHGSDQIEVEKPVLRGVISGLERNAPTGGIVVEALANRLARLMHYDQAELVQQHLQRAPAELVVDLDRLARQMWVEATQRRWIPPDLPQILDSIPAKTPLAIYGRGPNWLYAALAGHTAPAPFSLFDPRLGWAQAQSLRRVPQPVADVIRWQTREEQDYTLLKAHLLEPYLDYDDLSALTVPRLDPQRGVVVSGKLPFWLLTSLIVTYHEHPWLAVIQPQLNPNSVIIFSRCEDYRPGNSIQVVLD | not soluble
MENESKTINIELPEEIAQGNYCNLCIVMHSPSEFVLDFIRMVPNRDTARVQNRIILTPDNAKRLLTTLSDNIHRYEVEHGEIHTEQRVSDATFTFPTKIKGEA | soluble
MSEDGLKVSVLASGSTGNVTYIETPERKVLVDAGLSGKKIAGLMDSVGRDISEVDSLFVTHEHSDHIQSVGVLARKYGIDIYANQGTWDAIGGKIGKVPTEQKFIFDPNTTKSLDDLDIESFSVSHDAAEPQFYEFHHAGKSFVILTDTGYVSDRIAGTIRNADGYLFEVNHDTEMLRMGGYPWPLKQRIMGDHGHLSNEDGANALMDVIGNRTKKIYLGHLSLHNNMKELAHLTVTSMMQNHDLAVGHDFEILDTDHKIADPLTLILEHHHHHH | soluble
MGSDKIHHHHHHMATTVDTGDRRDNGKSVRRKLPRGAHAEIGNVDRDPVELLKISSEGRVRRLVPLRYGRMIESPFAFYRGSAIVQAHDLAGTPNSGLHIQICGDCHLANFGGFATPERALLFDLNDFDETSRGPWEWDLKRLAASFVVAARHLRHKQGVADDLVYQLVRSYQARMQGYGEMGILDTWYDHITFERLLGEETSPNIQRRIRRGMERAADRTSEALLPKLAERVGDKWTILDAPPAVFHVRGAHTLFDADDDWMTAKDIQAAAEKVYKEYLGTLAPDRQRLLSHFTLHDRAFKVVGVGSVGTRCMIQLMIDSHGKPMFLQIKEATRSVVARYFKGPAVSHDGRRVVEGQRLMQAASDLFLGWTKGPFGRDFYVRQLRDMKLSPQIELMDVEALGRYGALCGWVLARAHAKAGGLAAEISGYLGTSDRMAEVMVGYSNSYADQVEKDYERFVAACRSGRLEARTDADMAADFRV | not soluble
MSNEYDEYIANHTDPVKAINWNVIPDEKDLEVWDRLTGNFWLPEKIPVSNDIQSWNKMTPQEQLATMRVFTGLTLLDTIQGTVGAISLLPDAETMHEEAVYTNIAFMESVHAKSYSNIFMTLASTPQINEAFRWSEENENLQRKAKIIMSYYNGDDPLKKKVASTLLESFLFYSGFYLPMYLSSRAKLTNTADIIRLIIRDESVHGYYIGYKYQQGVKKLSEAEQEEYKAYTFDLMYDLYENEIEYTEDIYDDLGWTEDVKRFLRYNANKALNNLGYEGLFPTDETKVSPAILSSLSPNADENHDFFSGSGSSYVIGKAEDTTDDDWDF | soluble
MGQSWGYEGIAKRSLCTHKWLYNLNLHSINLFLPIESKMSAQASRQKKSDQEQRAADQALLNAAIEDNAMEQDENFTVIDKLESSGISSGDISKLKEAGYYTYESLAFTTRRELRNVKGISDQKAEKIMKEAMKFVQMGFTTGAEVHVKRSQLVQIRTGSASLDRLLGGGIETGSITEVYGEYRTGKTQLCHSLAVLCQLPIDMGGGEGKCMYIDTNATFRPERIIAIAQRYNMDSAHVLENIAVARAYNSEHLMALIIRAGAMMSESRYAVVIVDCATAHFRNEYTGRGDLAERQMKLSAFLKCLAKLADEYGVAVIITNQVVAQVDGGASMFQADAKKPIGGHIIAHMSTTRLYLRKGKGENRVAKMVQSPNLPEAEATYSITNHGIEDARED | soluble
MYLQPKKVRWRKQRRGTLKGKAFRGNKLAFGEYGIQALDRAWITQQQIEAVRVALVRSLKKGAKVWIRIFPDKPYTKKPNEVRMGGGKGDPEGFVAVVKPGRILFEFTGVPEEVAQEAFTIAASKLPIPVRLVKYGEFTFKYLEHHHHHH | not soluble
MIVTKDYSKESRVNENSKYGTLISDWYLKGRLTSLESQFINALDILETYHYGEKEYKDAKDKLMTRILGEDQYLLERKKVQYEEYKKLYQKYKEENPTSKLKLKTFDQYTIEDLTMREYNELTESLKSAVKDFEKDVEKIENQHHDLKPFTDEMEEKATSRVDDLANKAYSVYFAFVRDTQHKTEALELKAKVDLVLGDEDKPHRISNERIEKEMIKDLESIIEDFFIETGLNKPGNITSYDSSKHHYKNHSEGFEALVKETREAVANADESWKTKTVKKYGESETKSPVVKEENKVEDPQSPKFDNQQEVKTTAGKAEETTQPVAQPL | soluble
MSLTYLIKVLELFSGVGSFSISLNTLGIEHEIVGFSETRKTATQLFCKLHNKKESENLGDVRNVSAKDLDVDLLVFGSPCQSFTRAGKQGGGLKGSDTRSALMWEAVRIMEECKPKWIVWENVPDAISRKNMPNFQNYMDELDSLNYNTYYKVLNAHELGSAQKRKRLFSISIRKDIDNGKFEFLDLTREPKHLETYLENNDQPDIANEHIHSHLILGKDENGYKIKNGTKKGYLYANNGDGIDLAYVTSKARRGRVQVKACQTIMRGKTLGTINDGVLRFYSPREYWRLQEMPDELYKHVEACNFKPSTAYDVVGGVINQLHLKTVFLSLKKAFNEGHHHHHH | not soluble
GPGSMKPATIPHGKNDAEGAGARMYEGMNTLQKEELNDYLISQMGPGTKWHDEMSDVVNTIIRQRSINGEPLDVHDVLSEALPHCQLAISHEVRDGLFRRIAGMCTTTDV | soluble
MTENVVCTGAVNAVKEVWEKRIKKLNEDLKREKEFQHKLVRIWEERVSLTKLREKVTREDGRVILKIEKEEWKTLPSSLLKLNQLQEWQLHRTGLLKIPEFIGRFQNLIVLDLSRNTISEIPPGIGLLTRLQELILSYNKIKTVPKELSNCASLEKLELAVNRDICDLPQELSNLLKLTHLDLSMNDFTTIPLAVLNMPALEWLDMGSNKLEQLPDTIERMQNLHTLWLQRNEITCLPQTISNMKNLGTLVLSNNKLQDIPVCMEEMANLRFVNFRDNPLKLKVSLPPSEGTDEEEERELFGLQFMHTYIQESRRRADHQVNGSTTLPISINTDG | soluble
VINESEKEMIDSIFEFDDRIAEEVMTPRTEVYLINIDTPLNKYVDELLEIKYSRVPVFEGDSDNIIGILYIKDFIVEARKVGFENVNIKNIIHSPYFVPERKNINELFKELQAAKKHMAVLIDEYGGFSGIVTIEDLIEEVMGNISDE | soluble
MDRLSYAIGDKAVLNNIRVQFQPGSVTALLGPNGAGKSTLLKALCQEIPSAQGSIKLGHCQLVDWPRAELAKSLAVLPQHASLTFPFTVDEVVAMGLYPLTLSQKEGQQLVTKWLAEVGVLHLARRSYPTLSGGEKQRVQLARVLTQLSQSPFPPILLLDEPTSALDLAQQHKVLALAKNLAHKHAYTVIVVLHDLNQAARYSDRVIVLKQGEIVSEGTPNDALSIDIIRQVWDYEPEFIPAPQGDYPLIF | not soluble
VADRLIVKGAREHNLRSVDLDLPRDALIVFTGLSGSGKSSLAFDTIFAEGQRRYVESLSAYARQFLGQMDKPDVDFIEGLSPAVSIDQKSTNRNPRSTVGTITEVYDYLRLLYARAGTPHCPTCGERVARQTPQQIVDQVLAMPEGTRFLVLAPVVRTRKGEFADLFDKLNAQGYSRVRVDGVVHPLTDPPKLKKQEKHDIEVVVDRLTVKAAAKRRLTDSVETALNLADGIVVLEFVDHELGAPHREQRFSEKLACPNGHALAVDDLEPRSFSFNSPYGACPECSGLGIRKEVDPELVVPDPDRTLAQGAVAPWSNGHTAEYFTRMMAGLGEALGFDVDTPWRKLPAKARKAILEGADEQVHVRYRNRYGRTRSYYADFEGVLAFLQRKMSQTESEQMKERYEGFMRDVPCPVCAGTRLKPEILAVTLAGESKGEHGAKSIAEVCELSIADCADFLNALTLGPREQAIAGQVLKEIRSRLGFLLDVGLEYLSLSRAAATLSGGEAQRIRLATQIGSGLVGVLYVLDEPSIGLHQRDNRRLIETLTRLRDLGNTLIVVEHDEDTIEHADWIVDIGPGAGEHGGRIVHSGPYDELLRNKDSITGAYLSGRESIEIPAIRRSVDPRRQLTVVGAREHNLRGIDVSFPLGVLTSVTGVSGSGKSTLVNDILAAVLANRLNGARQVPGRHTRVTGLDYLDKLVRVDQSPIGRTPRSNPATYTGVFDKIRTLFAATTEAKVRGYQPGRFSFNVKGGRCEACTGDGTIKIEMNFLPDVYVPCEVCQGARYNRETLEVHYKGKTVSEVLDMSIEEAAEFFEPIAGVHRYLRTLVDVGLGYVRLGQPAPTLSGGEAQRVKLASELQKRSTGRTVYILDEPTTGLHFDDIRKLLNVINGLVDKGNTVIVIEHNLDVIKTSDWIIDLGPEGGAGGGTVVAQGTPEDVAAVPASYTGKFLAEVVGGGASAATSRSNRRRNVSA | not soluble
SLDSEKVKVLSIEEDNQAEILKELGLPANASYYRIKRVRYSEDTPFLVHITHLPKKLVKEPLSKDLTAYASVYERVRKDFSVDLFSLASVETNEIVFPEDAELLNLLQLSFREPAVKQVKHSYLADGSVAEYIISYKHWKYFKTKIEVEAE | soluble
MSLGLSKTIWTNPAEYLRALSPEAPVLFFSPSTLQATARRFIDGFPGMVTYAVKSNPEEVVIENLAAAGIRGYDVASPHEIRMIRRIAPDAALHYNNPVRSRSEIGVGVEMGVKSWSVDSASELAKLIELVPAEGCEIAVRFKLAVSGAAYNFGAKFGATVELAVELLRRVAEAGFIPSMTFHPGTQCTDPAAWETYIRTAAEIARDAGVTIARLNVGGGFPSHRLNGVEPELEAIFHLIDRVTDEAFGADRPLLVCEPGRGICADAFTLAARIKAVRDDAHVFLNDGVYGSLTELPMIGVIDRVAVLTPEGRRRDGETRDRIIFGPTCDSVDRLPGELPLAADVEEGDFLVFQGMGAYSAATNTRFNGFGELSMATVLSLKEGHHHHHH | soluble
